Patent US20250171562A1 (ALK ABELL, published 2025)

Molecular target: T1, recombinant human IgE (human, UniProt P01854-1 1-428)
T1 construct: made in-house (ALK); preloaded on immobilised FcεRIα in the displacement ELISA
Assay: IgE-FcεRIα displacement ELISA
How it was run: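 sdAbs at pM–μM were incubated 1 h on preformed complexes of 13 ng/ml recombinant human IgE with avi-tag-biotinylated human FcεRIα captured on streptavidin.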

T1 sequence (P01854 other isoform, or with tags, fused parts or gaps): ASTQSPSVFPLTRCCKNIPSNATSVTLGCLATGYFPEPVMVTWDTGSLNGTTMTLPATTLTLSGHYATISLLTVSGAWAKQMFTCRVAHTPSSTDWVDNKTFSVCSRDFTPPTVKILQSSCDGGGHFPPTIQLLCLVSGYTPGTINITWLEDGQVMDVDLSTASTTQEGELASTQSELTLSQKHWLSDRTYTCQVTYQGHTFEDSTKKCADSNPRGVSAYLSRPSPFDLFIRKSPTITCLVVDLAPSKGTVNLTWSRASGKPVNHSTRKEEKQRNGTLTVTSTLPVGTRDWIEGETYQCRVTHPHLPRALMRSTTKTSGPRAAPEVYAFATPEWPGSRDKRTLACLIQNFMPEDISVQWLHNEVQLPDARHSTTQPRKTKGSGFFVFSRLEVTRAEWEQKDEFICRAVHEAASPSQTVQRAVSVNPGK

| Binder | EC50 | Max effect |
| --- | --- | --- |
| CIgG4F4A1(RS) (Fc fusion) chain 1: GPPCPPCPAPEFLGGPSVFLFPPKPKDTLMISRTPEVTCVVVDVSQEDPEVQFNWYVDGVEVHNAKTKPREEQFNSTYRVVSVLTVLHQDWLNGKEYKCKVSNKGLPSSIEKTISKAKGQPREPQVYTLPPCQEEMTKNQVSLWCLVKGFYPSDIAVEWESNGQPENNYKTTPPVLDSDGSFFLYSRLTVDKSRWQEGNVFSCSVMHEALHNHYTQKSLSLSLGKRSDVQLQESGGGLVQAGGSLRLSCAVSGLSFSSMGWFRQPPGKEREFVAAISLYSGSTYYADSVKGRFTISSDNAKSTVYLQMNSLKPEDAAVYFCAADRQRTWSTFYASRQATYNYWGQGTQVTVTS chain 2: GPPCPPCPAPEFLGGPSVFLFPPKPKDTLMISRTPEVTCVVVDVSQEDPEVQFNWYVDGVEVHNAKTKPREEQFNSTYRVVSVLTVLHQDWLNGKEYKCKVSNKGLPSSIEKTISKAKGQPREPQVCTLPPSQEEMTKNQVSLSCAVKGFYPSDIAVEWESNGQPENNYKTTPPVLDSDGSFFLVSRLTVDKSRWQEGNVFSCSVMHEALHNHYTQKSLSLSLGKRSEVQLLESGGGLVQPGGSLRLSCAASGFTFGNYDMAWVRQAPGKRPEWVSSIDTGGDITHYADSVKGRFTISRDNAKNTLYLQMNSLRPEDTAVYWCATDEEYALGPNEFDYYGQGTLVTVSS | 90 nM | 70% |
| NIgG4F4A1(G4S)1 (Fc fusion) chain 1: DVQLQESGGGLVQAGGSLRLSCAVSGLSFSSMGWFRQPPGKEREFVAAISLYSGSTYYADSVKGRFTISSDNAKSTVYLQMNSLKPEDAAVYFCAADRQRTWSTFYASRQATYNYWGQGTQVTVTSGGGGSGPPCPPCPAPEFLGGPSVFLFPPKPKDTLMISRTPEVTCVVVDVSQEDPEVQFNWYVDGVEVHNAKTKPREEQFNSTYRVVSVLTVLHQDWLNGKEYKCKVSNKGLPSSIEKTISKAKGQPREPQVYTLPPCQEEMTKNQVSLWCLVKGFYPSDIAVEWESNGQPENNYKTTPPVLDSDGSFFLYSRLTVDKSRWQEGNVFSCSVMHEALHNHYTQKSLSLSLGK chain 2: EVQLLESGGGLVQPGGSLRLSCAASGFTFGNYDMAWVRQAPGKRPEWVSSIDTGGDITHYADSVKGRFTISRDNAKNTLYLQMNSLRPEDTAVYWCATDEEYALGPNEFDYYGQGTLVTVSSGGGGSGPPCPPCPAPEFLGGPSVFLFPPKPKDTLMISRTPEVTCVVVDVSQEDPEVQFNWYVDGVEVHNAKTKPREEQFNSTYRVVSVLTVLHQDWLNGKEYKCKVSNKGLPSSIEKTISKAKGQPREPQVCTLPPSQEEMTKNQVSLSCAVKGFYPSDIAVEWESNGQPENNYKTTPPVLDSDGSFFLVSRLTVDKSRWQEGNVFSCSVMHEALHNHYTQKSLSLSLGK |  | > 95% |
| NIgG4F4A1(G4S)2 (Fc fusion) chain 1: DVQLQESGGGLVQAGGSLRLSCAVSGLSFSSMGWFRQPPGKEREFVAAISLYSGSTYYADSVKGRFTISSDNAKSTVYLQMNSLKPEDAAVYFCAADRQRTWSTFYASRQATYNYWGQGTQVTVTSGGGGSGGGGSGPPCPPCPAPEFLGGPSVFLFPPKPKDTLMISRTPEVTCVVVDVSQEDPEVQFNWYVDGVEVHNAKTKPREEQFNSTYRVVSVLTVLHQDWLNGKEYKCKVSNKGLPSSIEKTISKAKGQPREPQVYTLPPCQEEMTKNQVSLWCLVKGFYPSDIAVEWESNGQPENNYKTTPPVLDSDGSFFLYSRLTVDKSRWQEGNVFSCSVMHEALHNHYTQKSLSLSLGK chain 2: EVQLLESGGGLVQPGGSLRLSCAASGFTFGNYDMAWVRQAPGKRPEWVSSIDTGGDITHYADSVKGRFTISRDNAKNTLYLQMNSLRPEDTAVYWCATDEEYALGPNEFDYYGQGTLVTVSSGGGGSGGGGSGPPCPPCPAPEFLGGPSVFLFPPKPKDTLMISRTPEVTCVVVDVSQEDPEVQFNWYVDGVEVHNAKTKPREEQFNSTYRVVSVLTVLHQDWLNGKEYKCKVSNKGLPSSIEKTISKAKGQPREPQVCTLPPSQEEMTKNQVSLSCAVKGFYPSDIAVEWESNGQPENNYKTTPPVLDSDGSFFLVSRLTVDKSRWQEGNVFSCSVMHEALHNHYTQKSLSLSLGK |  | > 95% |
| NIgG4F4A1(G4S)3 (Fc fusion) chain 1: DVQLQESGGGLVQAGGSLRLSCAVSGLSFSSMGWFRQPPGKEREFVAAISLYSGSTYYADSVKGRFTISSDNAKSTVYLQMNSLKPEDAAVYFCAADRQRTWSTFYASRQATYNYWGQGTQVTVTSGGGGSGGGGSGGGGSGPPCPPCPAPEFLGGPSVFLFPPKPKDTLMISRTPEVTCVVVDVSQEDPEVQFNWYVDGVEVHNAKTKPREEQFNSTYRVVSVLTVLHQDWLNGKEYKCKVSNKGLPSSIEKTISKAKGQPREPQVYTLPPCQEEMTKNQVSLWCLVKGFYPSDIAVEWESNGQPENNYKTTPPVLDSDGSFFLYSRLTVDKSRWQEGNVFSCSVMHEALHNHYTQKSLSLSLGK chain 2: EVQLLESGGGLVQPGGSLRLSCAASGFTFGNYDMAWVRQAPGKRPEWVSSIDTGGDITHYADSVKGRFTISRDNAKNTLYLQMNSLRPEDTAVYWCATDEEYALGPNEFDYYGQGTLVTVSSGGGGSGGGGSGGGGSGPPCPPCPAPEFLGGPSVFLFPPKPKDTLMISRTPEVTCVVVDVSQEDPEVQFNWYVDGVEVHNAKTKPREEQFNSTYRVVSVLTVLHQDWLNGKEYKCKVSNKGLPSSIEKTISKAKGQPREPQVCTLPPSQEEMTKNQVSLSCAVKGFYPSDIAVEWESNGQPENNYKTTPPVLDSDGSFFLVSRLTVDKSRWQEGNVFSCSVMHEALHNHYTQKSLSLSLGK |  | > 95% |
| CIgG4F4A1(G4S)3 (Fc fusion) chain 1: GPPCPPCPAPEFLGGPSVFLFPPKPKDTLMISRTPEVTCVVVDVSQEDPEVQFNWYVDGVEVHNAKTKPREEQFNSTYRVVSVLTVLHQDWLNGKEYKCKVSNKGLPSSIEKTISKAKGQPREPQVYTLPPCQEEMTKNQVSLWCLVKGFYPSDIAVEWESNGQPENNYKTTPPVLDSDGSFFLYSRLTVDKSRWQEGNVFSCSVMHEALHNHYTQKSLSLSLGKGGGGSGGGGSGGGGSDVQLQESGGGLVQAGGSLRLSCAVSGLSFSSMGWFRQPPGKEREFVAAISLYSGSTYYADSVKGRFTISSDNAKSTVYLQMNSLKPEDAAVYFCAADRQRTWSTFYASRQATYNYWGQGTQVTVTS chain 2: GPPCPPCPAPEFLGGPSVFLFPPKPKDTLMISRTPEVTCVVVDVSQEDPEVQFNWYVDGVEVHNAKTKPREEQFNSTYRVVSVLTVLHQDWLNGKEYKCKVSNKGLPSSIEKTISKAKGQPREPQVCTLPPSQEEMTKNQVSLSCAVKGFYPSDIAVEWESNGQPENNYKTTPPVLDSDGSFFLVSRLTVDKSRWQEGNVFSCSVMHEALHNHYTQKSLSLSLGKGGGGSGGGGSGGGGSEVQLLESGGGLVQPGGSLRLSCAASGFTFGNYDMAWVRQAPGKRPEWVSSIDTGGDITHYADSVKGRFTISRDNAKNTLYLQMNSLRPEDTAVYWCATDEEYALGPNEFDYYGQGTLVTVSS | 50 nM | 90% |

More lines, now with the values ahead:

| EC50 | Max effect | Binder |
| --- | --- | --- |
|  | 15% | CIgG4F5A1(RS) (Fc fusion) chain 1: GPPCPPCPAPEFLGGPSVFLFPPKPKDTLMISRTPEVTCVVVDVSQEDPEVQFNWYVDGVEVHNAKTKPREEQFNSTYRVVSVLTVLHQDWLNGKEYKCKVSNKGLPSSIEKTISKAKGQPREPQVYTLPPCQEEMTKNQVSLWCLVKGFYPSDIAVEWESNGQPENNYKTTPPVLDSDGSFFLYSRLTVDKSRWQEGNVFSCSVMHEALHNHYTQKSLSLSLGKRSDVQLQESGGGLVQPGGSLRLSCAASGSIFSIDIMGWYRQAPGKQRELVATMPEGNYINYADSVKGRLTLSRDKGKNTVYLQLNSLKPEDTAVYYCYGFGVREGRGNVYWGQGTQVTVS chain 2: GPPCPPCPAPEFLGGPSVFLFPPKPKDTLMISRTPEVTCVVVDVSQEDPEVQFNWYVDGVEVHNAKTKPREEQFNSTYRVVSVLTVLHQDWLNGKEYKCKVSNKGLPSSIEKTISKAKGQPREPQVCTLPPSQEEMTKNQVSLSCAVKGFYPSDIAVEWESNGQPENNYKTTPPVLDSDGSFFLVSRLTVDKSRWQEGNVFSCSVMHEALHNHYTQKSLSLSLGKRSEVQLLESGGGLVQPGGSLRLSCAASGFTFGNYDMAWVRQAPGKRPEWVSSIDTGGDITHYADSVKGRFTISRDNAKNTLYLQMNSLRPEDTAVYWCATDEEYALGPNEFDYYGQGTLVTVSS |
| 17 nM | 90% | CIgG4F4A1(G4S)1 (Fc fusion) chain 1: GPPCPPCPAPEFLGGPSVFLFPPKPKDTLMISRTPEVTCVVVDVSQEDPEVQFNWYVDGVEVHNAKTKPREEQFNSTYRVVSVLTVLHQDWLNGKEYKCKVSNKGLPSSIEKTISKAKGQPREPQVYTLPPCQEEMTKNQVSLWCLVKGFYPSDIAVEWESNGQPENNYKTTPPVLDSDGSFFLYSRLTVDKSRWQEGNVFSCSVMHEALHNHYTQKSLSLSLGKGGGGSDVQLQESGGGLVQAGGSLRLSCAVSGLSFSSMGWFRQPPGKEREFVAAISLYSGSTYYADSVKGRFTISSDNAKSTVYLQMNSLKPEDAAVYFCAADRQRTWSTFYASRQATYNYWGQGTQVTVTS chain 2: GPPCPPCPAPEFLGGPSVFLFPPKPKDTLMISRTPEVTCVVVDVSQEDPEVQFNWYVDGVEVHNAKTKPREEQFNSTYRVVSVLTVLHQDWLNGKEYKCKVSNKGLPSSIEKTISKAKGQPREPQVCTLPPSQEEMTKNQVSLSCAVKGFYPSDIAVEWESNGQPENNYKTTPPVLDSDGSFFLVSRLTVDKSRWQEGNVFSCSVMHEALHNHYTQKSLSLSLGKGGGGSEVQLLESGGGLVQPGGSLRLSCAASGFTFGNYDMAWVRQAPGKRPEWVSSIDTGGDITHYADSVKGRFTISRDNAKNTLYLQMNSLRPEDTAVYWCATDEEYALGPNEFDYYGQGTLVTVSS |
| 30 nM | 90% | CIgG4F4A1(G4S)2 (Fc fusion) chain 1: GPPCPPCPAPEFLGGPSVFLFPPKPKDTLMISRTPEVTCVVVDVSQEDPEVQFNWYVDGVEVHNAKTKPREEQFNSTYRVVSVLTVLHQDWLNGKEYKCKVSNKGLPSSIEKTISKAKGQPREPQVYTLPPCQEEMTKNQVSLWCLVKGFYPSDIAVEWESNGQPENNYKTTPPVLDSDGSFFLYSRLTVDKSRWQEGNVFSCSVMHEALHNHYTQKSLSLSLGKGGGGSGGGGSDVQLQESGGGLVQAGGSLRLSCAVSGLSFSSMGWFRQPPGKEREFVAAISLYSGSTYYADSVKGRFTISSDNAKSTVYLQMNSLKPEDAAVYFCAADRQRTWSTFYASRQATYNYWGQGTQVTVTS chain 2: GPPCPPCPAPEFLGGPSVFLFPPKPKDTLMISRTPEVTCVVVDVSQEDPEVQFNWYVDGVEVHNAKTKPREEQFNSTYRVVSVLTVLHQDWLNGKEYKCKVSNKGLPSSIEKTISKAKGQPREPQVCTLPPSQEEMTKNQVSLSCAVKGFYPSDIAVEWESNGQPENNYKTTPPVLDSDGSFFLVSRLTVDKSRWQEGNVFSCSVMHEALHNHYTQKSLSLSLGKGGGGSGGGGSEVQLLESGGGLVQPGGSLRLSCAASGFTFGNYDMAWVRQAPGKRPEWVSSIDTGGDITHYADSVKGRFTISRDNAKNTLYLQMNSLRPEDTAVYWCATDEEYALGPNEFDYYGQGTLVTVSS |
